Data set [1] is described as follows: Thermostability: mid-point thermal denaturation temperature (Tm) from temperature-dependent fluorescence (Roche LightCycler). Type of data set: physicochemical. As to conditions: apo-protein. An excerpt: Protein (un)folding is monitored by binding of SYPRO to the unfolded state as a function of temperature. Fluorescence intensity increases upon binding of SYPRO by the unfolded state.
Panels A-C: ttGBP182C.2.0-Imm0; Panels D-F: ttGBP182C.2.0-Imm1 (see FIG. 13). (A) Solution (Tm=347.6K). (B) Immobilized on Nickel-nitriloacetic acid (Ni-NTA) beads (Tm=346.7K). (C) Reconstituted, desiccated Ni-NTA beads (Tm=347.6K). (D) Fluorescence response of ttGGBP5.2 Imm1 immobilized on NHS-functionalized agarose beads. Data was collected on a Roche LightCycler real-time PCS instrument, recording emission intensities at 488 nm and 510 nm as a function of temperature in a 384-well microtiter plate. […] Temperature melts of twelve different wells. Apo protein thermostability as reported by the denaturation mid-point temperature is 349 K, similar to the protein free in solution. […] (F) Representative Langmuir ligand-binding curve extracted from the three-dimensional data.
Temperatures were advanced in 1K steps. […] Under these experimental photobleaching was not observed.

The nature of data set [2]: Glucose binding: isothermal fluorescence titrations, ratiometric (appKd) and monochromatic (trueKd) fits. Conditions: room temperature. An excerpt:
2 For a single glucose-binding site, the fractional saturation is given by
[formula] where ^apoIλ2 and ^satIλ2 are the emission intensities of the monochromatic signal at wavelength λ2 of the ligand-free and ligand-bound protein, respectively.

Data set [3] in a line: Galactose binding: isothermal fluorescence titrations of conjugates. Also on record: key to Galactose trueKd: nb, no bonding. Conditions: for S, selectivity = trueKd(galactose)/trueKd(glucose) / Kd: Acrylodan conjugate; for S, selectivity = trueKd(galactose)/trueKd(glucose): S > 1, selective for glucose; for Kd: read-out: Galactose trueKd.
Where [4] appears, read: read-out: Glucose appKd, Acrylodan conjugate, dichromatic ratiometry.
Setting [5] is: read-out: Glucose trueKd, Acrylodan conjugate, monochromatic titration curves.
[6] abbreviates: monochromatic titration curves, room temperature.

B1: ttGGBP17C.21: affinity-tuning mutant, 17C background, SEQ ID NO: 79 (protein)
chain: MKQLNIGVAIYKFDDTCMTGVRNAMTAEAQGKAKLNMVDSQNSQPTQNDQVDLFITKKMNALAINPVDRTAAGTIIDKAKQANIPVVFFNREPLPEDMKKWDKVYYVGAKAEQSGILQGQIMADYWKAHPEADKNHDGVMQYVMLMGQPGHQDAILRTQYSIQTVKDAGIKVQELAKDYANWDRVTAHDKMAAWLSSFGDKIEAVFANNDDMALGAIEALKSAGYFTGNKYIPVVGVDATAPGIQAIKDGTLLGTVLADAKNQAKATFNIAYELAQGITPTKDNIGYDITDGKYVWIPYKKITKDNISDAEQGGSHHHHHH
modifications: ttGGBP17C.21 (affinity-tuning mutant, 17C background (Table 6) with signal peptide replaced with M and GGSHHHHHH at C-terminus)
Regarding B1, in data set [1] (Badan conjugate), the apoTm was 345 K. Besides, the Kd was found to be 61 mM in data set [2] (read-out: Glucose appKd, Badan conjugate, dichromatic ratiometry) and 69 mM in data set [2] (read-out: Glucose trueKd, Badan conjugate, monochromatic titration curves). In data set [3] (Badan conjugate, monochromatic titration curves, room temperature), the “Galactose trueKd” value is recorded as “nb”.

B2: ttGGBP182C.2.5: affinity-tuning mutant, 182C background, SEQ ID NO: 92 (protein)
chain: MKQLNIGVAIYKFDDTFMTGVRNAMTAEAQGKAKLNMVDSQNSQPTQNDQVDLFITKKMNALAINPVDRTAAGTIIDKAKQANIPVVFFNKEPLPEDMKKWDKVYYVGAKAEQSGILQGQIMADYWKAHPEADKNHDGVMQYVMLMGEPGQQDAILRTQYSIQTVKDAGIKVQELAKDYANCDRVTAHDKMAAWLSSFGDKIEAVFANNDDMALGAIEALKSAGYFTGNKYIPVVGVDATAPGIQAIKDGTLLGTVLNDAKNQAKATFNIAYELAQGITPTKDNIGYDITDGKYVWIPYKKITKDNISDAEQGGSHHHHHH
modifications: ttGGBP182C.2.5 (affinity-tuning mutant, 182C background (Table 6) with signal peptide replaced with M and GGSHHHHHH at C-terminus)
In turn, B2 registered an apoTm in data set [1] (Acrylodan conjugate) of 346 K. The Kd was determined as 10.8 mM in data set [2] (setting [4]), 13 mM in data set [2] (setting [5]) and 20.3 mM in data set [3] (setting [6]). For the same molecule, the “S, selectivity = trueKd(galactose)/trueKd(glucose)” value in data set [3] was determined as 1.6.

B3: ttGGBP182C.2.3: affinity-tuning mutant, 182C background, SEQ ID NO: 90 (protein)
chain: MKQLNIGVAIYKFDDTFMTGVRNAMTAEAQGKAKLNMVDSQNSQPTQNDQVDLFITKKMNALAINPVDRTAAGTIIDKAKQANIPVVFFNKEPLPEDMKKWDKVYYVGAKAEQSGILQGQIMADYWKAHPEADKNHDGVMQYVMLMGEPGHQDNILRTQYSIQTVKDAGIKVQELAKDYANCDRVTAHDKMAAWLSSFGDKIEAVFANNDDMALGAIEALKSAGYFTGNKYIPVVGVDATAPGIQAIKDGTLLGTVLNDAKNQAKATFNIAYELAQGITPTKDNIGYDITDGKYVWIPYKKITKDNISDAEQGGSHHHHHH
modifications: ttGGBP182C.2.3 (affinity-tuning mutant, 182C background (Table 6) with signal peptide replaced with M and GGSHHHHHH at C-terminus)
As to B3, the apoTm in data set [1] (Acrylodan conjugate) is given as 346 K. Besides, the values for the Kd in data set [2] (setting [4]) and in data set [2] (setting [5]) were 16.3 mM and 19 mM, respectively. For the same molecule, the “S, selectivity = trueKd(galactose)/trueKd(glucose)” value in data set [3] worked out at 10.9.

B4: ttGGBP182C.2.6: affinity-tuning mutant, 182C background, SEQ ID NO: 93 (protein)
chain: MKQLNIGVAIYKFDDTFMTGVRNAMTAEAQGKAKLNMVDSQNSQPTQNDQVDLFITKKMNALAINPVDRTAAGTIIDKAKQANIPVVFFNKEPLPEDMKKWDKVYYVGAKAEQSGILQGQIMADYWKAHPEADKNHDGVMQYVMLMGEPGNQDAILRTQYSIQTVKDAGIKVQELAKDYANCDRVTAHDKMAAWLSSFGDKIEAVFANNDDMALGAIEALKSAGYFTGNKYIPVVGVDATAPGIQAIKDGTLLGTVLNDAKNQAKATFNIAYELAQGITPTKDNIGYDITDGKYVWIPYKKITKDNISDAEQGGSHHHHHH
modifications: ttGGBP182C.2.6 (affinity-tuning mutant, 182C background (Table 6) with signal peptide replaced with M and GGSHHHHHH at C-terminus)
With B4, the apoTm in data set [1] (Acrylodan conjugate) is 347 K. For the same molecule, the figures for the Kd in data set [2] (setting [4]), in data set [2] (setting [5]) and in data set [3] (setting [6]) were 19.2 mM, 17.9 mM and 52.6 mM, respectively. For the same molecule, the “S, selectivity = trueKd(galactose)/trueKd(glucose)” value in data set [3] is listed as 2.9.

B5: ttGGBP182C.2.0: affinity-tuning mutant, 182C background (R91K, Q148E), SEQ ID NO: 88 and 298 (protein)
chain: MKQLNIGVAIYKFDDTFMTGVRNAMTAEAQGKAKLNMVDSQNSQPTQNDQVDLFITKKMNALAINPVDRTAAGTIIDKAKQANIPVVFFNKEPLPEDMKKWDKVYYVGAKAEQSGILQGQIMADYWKAHPEADKNHDGVMQYVMLMGEPGHQDAILRTQYSIQTVKDAGIKVQELAKDYANCDRVTAHDKMAAWLSSFGDKIEAVFANNDDMALGAIEALKSAGYFTGNKYIPVVGVDATAPGIQAIKDGTLLGTVLNDAKNQAKATFNIAYELAQGITPTKDNIGYDITDGKYVWIPYKKITKDNISDAEQGGSHHHHHH
modifications: ttGGBP182C.2.0 (affinity-tuning mutant, 182C background (Table 6) with signal peptide replaced with M and GGSHHHHHH at C-terminus)
In data set [1] (Acrylodan conjugate), B5 gave an apoTm of 346 K. Moreover, the Kd in data set [2] (setting [4]) is 4.5 mM; in data set [2] (setting [5]) it was 6 mM; in data set [3] (setting [6]) it was 18.5 mM. For the same molecule, in data set [3], the “S, selectivity = trueKd(galactose)/trueKd(glucose)” value was 3.1.

B6: ttGGBP182C.2.1: affinity-tuning mutant, 182C background, SEQ ID NO: 89 (protein)
chain: MKQLNIGVAIYKFDDTFMTGVRNAMTAEAQGKAKLNMVDSQNSQPTQNDQVDLFITKKMNALAINPVDRTAAGTIIDKAKQANIPVVFFNKEPLPEDMKKWDKVYYVGAKAEQSGILQGQIMADYWKAHPEADKNHDGVMQYVMLMGEPGHQDSILRTQYSIQTVKDAGIKVQELAKDYANCDRVTAHDKMAAWLSSFGDKIEAVFANNDDMALGAIEALKSAGYFTGNKYIPVVGVDATAPGIQAIKDGTLLGTVLNDAKNQAKATFNIAYELAQGITPTKDNIGYDITDGKYVWIPYKKITKDNISDAEQGGSHHHHHH
modifications: ttGGBP182C.2.1 (affinity-tuning mutant, 182C background (Table 6) with signal peptide replaced with M and GGSHHHHHH at C-terminus)
B6: in data set [1] (Acrylodan conjugate), the apoTm is 328 K. The Kd in data set [2] (setting [4]) turned out to be 3 mM; in data set [2] (setting [5]), 4.1 mM; in data set [3] (setting [6]), 13.1 mM. The “S, selectivity = trueKd(galactose)/trueKd(glucose)” value in data set [3] was 3.2.

B7: ttGGBP182C.3: affinity-tuning mutant, 182C background, SEQ ID NO: 97 (protein)
chain: MKQLNIGVAIYKFDDTFMTGVRNAMTAEAQGKAKLNMVDSQNSQPTQNDQVDLFITKKMNALAINPVDRTAAGTIIDKAKQANIPVVFFNKEPLPEDMKKWDKVYYVGAKAEQSGILQGQIMADYWKAHPEADKNHDGVMQYVMLMGQPGHQDAILRTQYSIQTVKDAGIKVQELAKDYANCDRVTAHDKMAAWLSSFGDKIEAVFANNDDMALGAIEALKSAGYFTGNKYIPVVGVDATAPGIQAIKDGTLLGTVLNDAKNQAKATFNIAYELAQGITPTKDNIGYDITDGKYVWIPYKKITKDNISDAEQGGSHHHHHH
modifications: ttGGBP182C.3 (affinity-tuning mutant, 182C background (Table 6) with signal peptide replaced with M and GGSHHHHHH at C-terminus)
B7 showed an apoTm in data set [1] (Acrylodan conjugate) of 346 K. Moreover, the Kd was 0.9 mM in data set [2] (setting [5]) and 3.1 mM in data set [3] (setting [6]).

B8: ttGGBP182C.4: affinity-tuning mutant, 182C background, SEQ ID NO: 98 (protein)
chain: MKQLNIGVAIYKFDDTFMTGVRNAMTAEAQGKAKLNMVDSQNSQPTQNDQVDLFITKKMNALAINPVDRTAAGTIIDKAKQANIPVVFFNREPLPEDMKKWDKVYYVGAKAEQSGILQGQIMADYWKAHPEADKNHDGVMQYVMLMGEPGHQDAILRTQYSIQTVKDAGIKVQELAKDYANCDRVTAHDKMAAWLSSFGDKIEAVFANNDDMALGAIEALKSAGYFTGNKYIPVVGVDATAPGIQAIKDGTLLGTVLNDAKNQAKATFNIAYELAQGITPTKDNIGYDITDGKYVWIPYKKITKDNISDAEQGGSHHHHHH
modifications: ttGGBP182C.4 (affinity-tuning mutant, 182C background (Table 6) with signal peptide replaced with M and GGSHHHHHH at C-terminus)
For the molecule B8, the apoTm in data set [1] (Acrylodan conjugate) amounted to 347 K. For the same molecule, the results for the Kd in data set [2] (setting [4]), in data set [2] (setting [5]) and in data set [3] (setting [6]) were 0.6 mM, 0.8 mM and 6.5 mM, respectively. In data set [3], the “S, selectivity = trueKd(galactose)/trueKd(glucose)” value is listed as 8.1.

For the origin of these results see patent publication US11156615B2 (priority 2015, dated 2021).
